Test results as given in patent US20170296650A1 (Novartis, published 2017).

B1: 2B11 (antibody, V domains shown)
VH: AVRLVESGGGLAQPGRSLRLSCQVSGFTFGSYEMNWVRQAPGKGLEWIAYIDFTGSTIYYADSVKGRFTISRNTARNSLYLQMNSLRVEDTAVYYCVRDAGRWGTSWYYFDYWGQGTRVTVSP
VL: QSVLTQPPSVSGAPGQRVTISCTGISSNIGAGYDIHWYQQIPGKAPKLLVYGNNNRPSGVPDRFSGSKSGTSVSLAITGLQVEDEADYYCQSYDNSLNGWVFGGGTRLTVL
notes: human IgG; also called 2B11-biotin
B2: 2C12 (antibody, V domains shown)
VH: QITLRESGPTLVKPTQTLTLTCTFSGFSLNTNGVGVGWIRQPPGKALEWLALIYWNGNEGYSPSLKSRLTITKDTSKNQVVLTMTNMDPVDTATYYCVHWPQGLTTVTRLAFDIWGQGTMVTVSS
VL: QSALTQPRSVSGSPGQSVTISCTGTTSDVGRYNFVSWYQQHPGKAPKLLMYDVSQRPSGVPSRFSGSKSGNTASLTISGLQAEDEAVFYCCSYAGGNFFSYVFGTGTKVTVL
notes: human IgG; also called 2C12-biotin
B3: 7I13 (antibody, V domains shown)
VH: QVQLVESGGGVVQPGRSLRLSCAASGFTFSNYGMHWVRQGPGKGLEWVAVISYDASSKYYTDSVQGRFTISRDNSKNTLFLQMNSLRGEDTAVYYCAKALRYLDWFLSDPFDYWGQGTLVTVSS
VL: EIVLTQSPGTLSLSPGERATLSCRASQSVSSDFLAWYQQKPGQAPRLLIYGASSRATGIPDRFSGSGSGTDFTLTISRLEPEDFAVYYCQQYAASPPFGQGTRLEIK
notes: human IgG; also called 7113
B4: 8C15 (antibody, V domains shown)
VH: QVQLQESGPGLVKPSETLSLTCTVSGGSIRSYYWSWIRQPPGKGLEWIGHIYYSGNTNYSPSLQSRVTISLDTPKNQFSLRLSSVTAADTAVYYCARHDVIVVRGVFDVWGQGTVVTVSS
VL: QSALTQPASVSGSPGQSITISCTGTSSDIGTYNLVSWYQQHPGKAPKVLIYDGSKRPSGVSSRFSASKSGNTASLTISGLQAEDETDYYCCSYAGTSDFFVVFGGGTKLTVL
notes: human IgG; also called 8C15-biotin
B5: 9I6 (antibody, V domains shown)
VH: EVQLVQSGAEVKKPGESLKISCRESGDTFPAYWIAWVRQMPGKGLEWMGIIYPIDSETTYSPSFQGQVTISADKSINTAYLQWSSLKASDSAIYYCARGTSTGLREAFHIWGQGTMVTVSS
VL: DVVMTQSPLSLAVTLGQPAYISCRSSQSLGYSDGNTYLNWFQQRPGQSPRRLIYEVSNRDSGVPDRFSGSGSGTDFTLKISRVEAEDVGTYYCMQGTHWPPMCSFGQGTKLEIK
notes: human IgG; also called 9I6-biotin; 916
B6: 8J16 (antibody, V domains shown)
VH: QVQLQESGPGLVKPSETLSLTCSVSGGFTSSYYWSWIRQAPGKGLEWIGYVYYGESTDYNPSLKSRATISIDTSKNQFSLKLSSVTAADTAVYYCAREVDKRGFDYWGQGALVTVSS
VL: EIVLTQSPGTLSLSPGERATLSCRASQSVSGGYLAWYQQEPGQAPRLVIYGASSRATGIPDRFSASGSGTDFTLTITRLEPEDFAVYYCQQYGRTPLTFGGGTKVEIK
notes: human IgG; also called 8J16-biotin

Columns and labels:
[1] = biological target: T1, hCMV glycoprotein B (gB; HEK293T transfectant) (hCMV, UniProt P06473 32-906); assay: cell-based or functional assay
T1 sequence (P06473 32-906 limits assumed): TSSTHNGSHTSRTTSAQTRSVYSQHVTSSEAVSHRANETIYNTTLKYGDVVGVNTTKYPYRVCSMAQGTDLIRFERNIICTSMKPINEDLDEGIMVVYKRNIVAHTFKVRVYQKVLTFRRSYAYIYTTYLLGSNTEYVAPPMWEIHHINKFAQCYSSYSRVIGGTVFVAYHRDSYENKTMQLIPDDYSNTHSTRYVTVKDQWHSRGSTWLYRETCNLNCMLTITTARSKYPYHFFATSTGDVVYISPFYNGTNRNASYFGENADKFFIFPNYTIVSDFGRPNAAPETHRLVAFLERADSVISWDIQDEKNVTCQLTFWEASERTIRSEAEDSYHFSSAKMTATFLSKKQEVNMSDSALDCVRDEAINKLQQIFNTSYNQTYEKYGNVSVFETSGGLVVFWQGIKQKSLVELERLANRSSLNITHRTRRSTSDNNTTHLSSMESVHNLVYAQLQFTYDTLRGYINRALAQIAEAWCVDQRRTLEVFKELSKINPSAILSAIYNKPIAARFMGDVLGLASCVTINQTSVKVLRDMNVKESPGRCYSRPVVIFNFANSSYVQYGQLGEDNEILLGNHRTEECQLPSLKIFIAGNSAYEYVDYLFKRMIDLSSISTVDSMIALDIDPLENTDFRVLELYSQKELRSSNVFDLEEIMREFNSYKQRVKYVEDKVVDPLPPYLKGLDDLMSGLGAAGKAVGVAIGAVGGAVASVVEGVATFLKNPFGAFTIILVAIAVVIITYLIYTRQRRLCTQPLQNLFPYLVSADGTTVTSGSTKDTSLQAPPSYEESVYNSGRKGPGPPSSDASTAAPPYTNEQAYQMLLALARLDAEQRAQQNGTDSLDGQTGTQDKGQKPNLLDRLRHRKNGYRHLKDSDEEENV

[2] = biological target: T1, hCMV glycoprotein B (gB; HEK293T …); assay: cell competition; competitor 4H9-biotin
[3] = biological target: T1, hCMV glycoprotein B (gB; HEK293T …); assay: cell competition; competitor 5F1-biotin
[4] = biological target: T1, hCMV glycoprotein B (gB; HEK293T …); assay: cell competition; competitor 6B4-biotin
[5] = biological target: T1, hCMV glycoprotein B (gB; HEK293T …); assay: cell competition; competitor 7H3-biotin
[6] = biological target: T1, hCMV glycoprotein B (gB; HEK293T …); assay: cell competition; competitor 10C6-biotin
[7] = biological target: T1, hCMV glycoprotein B (gB; HEK293T …); assay: cell competition; competitor 2B11-biotin
[8] = biological target: T2, hCMV UL128 + UL130 + UL131A (HEK293T co-transfectant) (hCMV, UniProt P16837 1-171; P16772 1-214); assay: cell-based or functional assay
T2 sequence (P16837 whole entry, chain 1 of 2): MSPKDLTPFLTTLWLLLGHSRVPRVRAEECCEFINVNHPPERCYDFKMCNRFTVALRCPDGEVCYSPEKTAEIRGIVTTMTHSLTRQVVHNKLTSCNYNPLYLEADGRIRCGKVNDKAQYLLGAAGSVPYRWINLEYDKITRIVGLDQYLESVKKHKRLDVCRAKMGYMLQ
T2 sequence (P16772 whole entry, chain 2 of 2): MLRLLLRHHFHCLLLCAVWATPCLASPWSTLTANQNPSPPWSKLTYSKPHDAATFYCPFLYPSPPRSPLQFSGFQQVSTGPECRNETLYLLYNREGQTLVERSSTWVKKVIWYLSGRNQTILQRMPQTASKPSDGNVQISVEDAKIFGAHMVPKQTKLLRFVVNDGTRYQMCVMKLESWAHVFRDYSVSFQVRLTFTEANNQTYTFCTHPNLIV

[9] = biological target: T2, hCMV UL128 + UL130 + UL131A (HEK293T …); assay: cell-based or functional assay; remark: listed apart in the source
[10] = biological target: T3, hCMV gH + gL + UL128 + UL130 + UL131A (5-member complex; HEK293T co-transfectant) (hCMV, UniProt P12824 24-743; P16832 31-278; P16837 1-171; P16772 1-214); assay: cell competition; competitor 2F4-biotin
T3 construct: whole, on cells; in the functional rows it stands for the complex on virions or transduced cells of the strain or isolate named in the readout; also called gH/gL/UL128-131A complex; pentameric complex

[11] = biological target: T3, hCMV gH + gL + UL128 + UL130 + UL131A …; assay: cell competition; competitor 5A2-biotin
[12] = biological target: T3, hCMV gH + gL + UL128 + UL130 + UL131A …; assay: cell competition; competitor 6G4-biotin
[13] = biological target: T3, hCMV gH + gL + UL128 + UL130 + UL131A …; assay: cell competition; competitor 9I6-biotin
[14] = biological target: T3, hCMV gH + gL + UL128 + UL130 + UL131A …; assay: cell competition; competitor 10F7-biotin
[15] = biological target: T3, hCMV gH + gL + UL128 + UL130 + UL131A …; assay: cell competition; competitor 15D8-biotin
[16] = biological target: T3, hCMV gH + gL + UL128 + UL130 + UL131A …; assay: cell competition; competitor 1F11-biotin
[17] = biological target: T3, hCMV gH + gL + UL128 + UL130 + UL131A …; assay: cell competition; competitor 4I22-biotin
[18] = biological target: T3, hCMV gH + gL + UL128 + UL130 + UL131A …; assay: cell competition; competitor 4N10-biotin
[19] = biological target: T3, hCMV gH + gL + UL128 + UL130 + UL131A …; assay: cell competition; competitor 2C12-biotin
[20] = biological target: T3, hCMV gH + gL + UL128 + UL130 + UL131A …; assay: cell competition; competitor 8C15-biotin
[21] = biological target: T3, hCMV gH + gL + UL128 + UL130 + UL131A …; assay: cell competition; competitor 8I21-biotin
[22] = biological target: T3, hCMV gH + gL + UL128 + UL130 + UL131A …; assay: cell competition; competitor 8J16-biotin

Row | Binder | 50% neutralization VR1814, ARPE [8] [µg/mL] | 50% neutralization VR1814, MRC-9 [8] [µg/mL] | 90% neutralization VR1814, ARPE [9] [µg/mL] | 90% neutralization VR1814, MRC-9 [9] [µg/mL] | Inhibition of binding (%) [10] [%] | Inhibition of binding (%) [12] [%] | Inhibition of binding (%) [13] [%] | Inhibition of binding (%) [16] [%] | Inhibition of binding (%) [17] [%] | Inhibition of binding (%) [19] [%] | Inhibition of binding (%) [20] [%] | Inhibition of binding (%) [21] [%] | Inhibition of binding (%) [22] [%] | other results
1 | B1 | – | – | – | – | – | – | – | – | – | – | – | – | – | 90% neutralization VR1814, ARPE [1]: 0.2 µg/mL; 90% neutralization VR1814, MRC-9 [1]: 0.75 µg/mL; Inhibition of binding (%) [2]: 100%; Inhibition of binding (%) [3]: 100%; Inhibition of binding (%) [4]: 0%; Inhibition of binding (%) [5]: 0%; Inhibition of binding (%) [6]: 100%; Inhibition of binding (%) [7]: 100%
2 | B2 | < 0.01 | ≤ 2 | 0.006 | > 10 | 0 | 100 | 100 | 0 | 0 | 100 | 100 | 0 | 100 | Inhibition of binding (%) [11]: 0%; Inhibition of binding (%) [14]: 0%; Inhibition of binding (%) [15]: 0%; Inhibition of binding (%) [18]: 0%
3 | B3 | < 0.01 | > 2 | 0.008 | > 10 | – | 0 | 0 | 0 | – | 0 | 0 | 0 | 0 | –
4 | B4 | < 0.001 | > 2 | 0.0025 | > 10 | – | 100 | 100 | – | 0 | 100 | 100 | 0 | 100 | –
5 | B5 | < 0.001 | > 2 | 0.0007 | > 10 | 0 | 100 | 100 | 0 | 0 | 100 | 100 | 0 | 100 | –
6 | B6 | < 0.001 | > 2 | 0.0008 | > 10 | 0 | 100 | 70 | 0 | 0 | 100 | 100 | 0 | 100 | –
